Test results as given in US20250043028A1 (Hoffmann-La Roche, published 2025).

T1: human CEA expressed on tumor cells (LS-174T, MKN-45, MC38-huCEA) (human, UniProt P06731 35-685)
T1 sequence (looked up): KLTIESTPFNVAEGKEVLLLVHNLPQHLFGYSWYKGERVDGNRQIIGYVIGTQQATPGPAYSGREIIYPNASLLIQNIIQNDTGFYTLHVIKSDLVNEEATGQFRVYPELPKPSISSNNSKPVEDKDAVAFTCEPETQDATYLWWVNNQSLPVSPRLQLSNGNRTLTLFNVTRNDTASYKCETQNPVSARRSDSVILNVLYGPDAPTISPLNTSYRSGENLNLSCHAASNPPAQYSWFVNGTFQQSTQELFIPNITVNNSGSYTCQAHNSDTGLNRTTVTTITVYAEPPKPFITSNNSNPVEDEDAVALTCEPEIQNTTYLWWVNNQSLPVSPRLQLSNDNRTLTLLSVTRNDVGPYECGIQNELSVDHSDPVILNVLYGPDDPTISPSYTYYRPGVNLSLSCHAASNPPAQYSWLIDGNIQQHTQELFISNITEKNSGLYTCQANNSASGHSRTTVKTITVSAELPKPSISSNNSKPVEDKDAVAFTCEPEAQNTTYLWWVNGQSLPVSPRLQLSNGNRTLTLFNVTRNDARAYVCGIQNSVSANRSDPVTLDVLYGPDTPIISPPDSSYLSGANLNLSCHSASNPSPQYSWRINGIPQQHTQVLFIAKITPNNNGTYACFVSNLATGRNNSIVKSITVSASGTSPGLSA

B1: “1+1 IgG Crossfab light chain (LC) fusion” (CH1A1A/V9) (anti-CEA/anti-huCD3) (bispecific antibody)
chain 1: DIQMTQSPSSLSASVGDRVTITCRASQDIRNYLNWYQQKPGKAPKLLIYYTSRLESGVPSRFSGSGSGTDYTLTISSLQPEDFATYYCQQGNTLPWTFGQGTKVEIKSSASTKGPSVFPLAPSSKSTSGGTAALGCLVKDYFPEPVTVSWNSGALTSGVHTFPAVLQSSGLYSLSSVVTVPSSSLGTQTYICNVNHKPSNTKVDKKVEPKSC
chain 2: DIQMTQSPSSLSASVGDRVTITCKASAAVGTYVAWYQQKPGKAPKLLIYSASYRKRGVPSRFSGSGSGTDFTLTISSLQPEDFATYYCHQYYTYPLFTFGQGTKLEIKRTVAAPSVFIFPPSDEQLKSGTASVVCLLNNFYPREAKVQWKVDNALQSGNSQESVTEQDSKDSTYSLSSTLTLSKADYEKHKVYACEVTHQGLSSPVTKSFNRGECGGGGSGGGGSGGGGSGGGGSEVQLVESGGGLVQPGGSLRLSCAASGYSFTGYTMNWVRQAPGKGLEWVALINPYKGVSTYNQKFKDRFTISVDKSKNTAYLQMNSLRAEDTAVYYCARSGYYGDSDWYFDVWGQGTLVTVSSASVAAPSVFIFPPSDEQLKSGTASVVCLLNNFYPREAKVQWKVDNALQSGNSQESVTEQDSKDSTYSLSSTLTLSKADYEKHKVYACEVTHQGLSSPVTKSFNRGEC
chain 3: not shown
chain 4: DKTHTCPPCPAPEAAGGPSVFLFPPKPKDTLMISRTPEVTCVVVDVSHEDPEVKFNWYVDGVEVHNAKTKPREEQYNSTYRVVSVLTVLHQDWLNGKEYKCKVSNKALGAPIEKTISKAKGQPREPQVCTLPPSRDELTKNQVSLSCAVKGFYPSDIAVEWESNGQPENNYKTTPPVLDSDGSFFLVSKLTVDKSRWQQGNVFSCSVMHEALHNHYTQKSLSLSPGK
B2: “2+1 IgG Crossfab”; CL/CH1 exchange (M4-3 ML2/V9) (anti-MCSP/anti-huCD3) (bispecific antibody)
chain 1: B1 chain 1
chain 2: not shown
chain 3: QVQLQESGPGLVKPSQTLSLTCTVSGGSITSGYYWNWIRQHPGKGLEWIGYITYDGSNNYNPSLKSRVTISRDTSKNQFSLKLSSVTAADTAVYYCADFDYWGQGTLVTVSSASTKGPSVFPLAPSSKSTSGGTAALGCLVKDYFPEPVTVSWNSGALTSGVHTFPAVLQSSGLYSLSSVVTVPSSSLGTQTYICNVNHKPSNTKVDKKVEPKSCDKTHTCPPCPAPEAAGGPSVFLFPPKPKDTLMISRTPEVTCVVVDVSHEDPEVKFNWYVDGVEVHNAKTKPREEQYNSTYRVVSVLTVLHQDWLNGKEYKCKVSNKALGAPIEKTISKAKGQPREPQVCTLPPSRDELTKNQVSLSCAVKGFYPSDIAVEWESNGQPENNYKTTPPVLDSDGSFFLVSKLTVDKSRWQQGNVFSCSVMHEALHNHYTQKSLSLSPGK
chain 4: not shown
B3: “1+1 IgG Crossfab”; VL/VH exchange (LC007/V9) (anti-MCSP/anti-huCD3) (bispecific antibody)
chain 1: DIVLTQSPSSLSASLGDRVTISCSASQGIRNYLNWYQQRPDGTVKLLIYYTSSLHSGVPSRFSGSGSGTDYSLTISNLEPEDIATYYCQQYSKLPWTFGGGTKLEIKRTVAAPSVFIFPPSDEQLKSGTASVVCLLNNFYPREAKVQWKVDNALQSGNSQESVTEQDSKDSTYSLSSTLTLSKADYEKHKVYACEVTHQGLSSPVTKSFNRGEC
chain 2: DIQMTQSPSSLSASVGDRVTITCRASQDIRNYLNWYQQKPGKAPKLLIYYTSRLESGVPSRFSGSGSGTDYTLTISSLQPEDFATYYCQQGNTLPWTFGQGTKVEIKSSASTKGPSVFPLAPSSKSTSGGTAALGCLVKDYFPEPVTVSWNSGALTSGVHTFPAVLQSSGLYSLSSVVTVPSSSLGTQTYICNVNHKPSNTKVDKKVEPKSCGGGGSGGGGSEVQLQESGPGLVKPSQSLSLTCSVTGYSITSGYYWNWIRQFPGNKLEWMGYITYDGSNNYNPSLKNRISITRDTSKNQFFLKLNSVTTEDTATYYCADFDYWGQGTTLTVSSASTKGPSVFPLAPSSKSTSGGTAALGCLVKDYFPEPVTVSWNSGALTSGVHTFPAVLQSSGLYSLSSVVTVPSSSLGTQTYICNVNHKPSNTKVDKKVEPKSCDKTHTCPPCPAPEAAGGPSVFLFPPKPKDTLMISRTPEVTCVVVDVSHEDPEVKFNWYVDGVEVHNAKTKPREEQYNSTYRVVSVLTVLHQDWLNGKEYKCKVSNKALGAPIEKTISKAKGQPREPQVCTLPPSRDELTKNQVSLSCAVKGFYPSDIAVEWESNGQPENNYKTTPPVLDSDGSFFLVSKLTVDKSRWQQGNVFSCSVMHEALHNHYTQKSLSLSPGK
chain 3: EVQLVESGGGLVQPGGSLRLSCAASGYSFTGYTMNWVRQAPGKGLEWVALINPYKGVSTYNQKFKDRFTISVDKSKNTAYLQMNSLRAEDTAVYYCARSGYYGDSDWYFDVWGQGTLVTVSSASVAAPSVFIFPPSDEQLKSGTASVVCLLNNFYPREAKVQWKVDNALQSGNSQESVTEQDSKDSTYSLSSTLTLSKADYEKHKVYACEVTHQGLSSPVTKSFNRGEC
chain 4: not shown
B4: “1+1 CrossMab”; CL/CH1 exchange (LC007/V9) (anti-MCSP/anti-huCD3) (bispecific antibody)
chain 1: B3 chain 1
chain 2: EVQLQESGPGLVKPSQSLSLTCSVTGYSITSGYYWNWIRQFPGNKLEWMGYITYDGSNNYNPSLKNRISITRDTSKNQFFLKLNSVTTEDTATYYCADFDYWGQGTTLTVSSASTKGPSVFPLAPSSKSTSGGTAALGCLVKDYFPEPVTVSWNSGALTSGVHTFPAVLQSSGLYSLSSVVTVPSSSLGTQTYICNVNHKPSNTKVDKKVEPKSCDKTHTCPPCPAPEAAGGPSVFLFPPKPKDTLMISRTPEVTCVVVDVSHEDPEVKFNWYVDGVEVHNAKTKPREEQYNSTYRVVSVLTVLHQDWLNGKEYKCKVSNKALGAPIEKTISKAKGQPREPQVCTLPPSRDELTKNQVSLSCAVKGFYPSDIAVEWESNGQPENNYKTTPPVLDSDGSFFLVSKLTVDKSRWQQGNVFSCSVMHEALHNHYTQKSLSLSPGK
chain 3: B1 chain 1
chain 4: not shown
B5: “2+1 IgG Crossfab”; VL/VH exchange (M4-3 ML2/V9) (anti-MCSP/anti-huCD3) (bispecific antibody)
chain 1: B3 chain 3
chain 2: not shown
chain 3: not shown
chain 4: B2 chain 3
B6: “2+1 IgG Crossfab, inverted”; CL/CH1 exchange (LC007/V9) (anti-MCSP/anti-huCD3) (bispecific antibody)
chain 1: B3 chain 1
chain 2: B4 chain 2
chain 3: B1 chain 1
chain 4: not shown
B7: “2+1 IgG Crossfab”; CL/CH1 exchange (LC007/anti-CD3) (anti-MCSP/anti-huCD3) (bispecific antibody)
chain 1: B3 chain 1
chain 2: B4 chain 2
chain 3: QAVVTQESALTTSPGETVTLTCRSSTGAVTTSNYANWVQEKPDHLFTGLIGGTNKRAPGVPARFSGSLIGDKAALTITGAQTEDEAIYFCALWYSNLWVFGGGTKLTVLSSASTKGPSVFPLAPSSKSTSGGTAALGCLVKDYFPEPVTVSWNSGALTSGVHTFPAVLQSSGLYSLSSVVTVPSSSLGTQTYICNVNHKPSNTKVDKKVEPKSC
chain 4: not shown
B8: “2+1 IgG Crossfab, inverted”; CL/CH1 exchange (LC007/anti-CD3) (anti-MCSP/anti-huCD3) (bispecific antibody)
chain 1: B3 chain 1
chain 2: B4 chain 2
chain 3: B7 chain 3
chain 4: not shown

Legend:
[1] = biological target: T1, human CEA expressed on tumor cells …; assay: cell-based or functional assay
[2] = biological target: T2, human MCSP expressed on tumor cells (Colo-38, WM266-4, MV-3) (human, UniProt Q6UVK1 30-2322); assay: cell-based or functional assay
T2 sequence (Q6UVK1 30-2322): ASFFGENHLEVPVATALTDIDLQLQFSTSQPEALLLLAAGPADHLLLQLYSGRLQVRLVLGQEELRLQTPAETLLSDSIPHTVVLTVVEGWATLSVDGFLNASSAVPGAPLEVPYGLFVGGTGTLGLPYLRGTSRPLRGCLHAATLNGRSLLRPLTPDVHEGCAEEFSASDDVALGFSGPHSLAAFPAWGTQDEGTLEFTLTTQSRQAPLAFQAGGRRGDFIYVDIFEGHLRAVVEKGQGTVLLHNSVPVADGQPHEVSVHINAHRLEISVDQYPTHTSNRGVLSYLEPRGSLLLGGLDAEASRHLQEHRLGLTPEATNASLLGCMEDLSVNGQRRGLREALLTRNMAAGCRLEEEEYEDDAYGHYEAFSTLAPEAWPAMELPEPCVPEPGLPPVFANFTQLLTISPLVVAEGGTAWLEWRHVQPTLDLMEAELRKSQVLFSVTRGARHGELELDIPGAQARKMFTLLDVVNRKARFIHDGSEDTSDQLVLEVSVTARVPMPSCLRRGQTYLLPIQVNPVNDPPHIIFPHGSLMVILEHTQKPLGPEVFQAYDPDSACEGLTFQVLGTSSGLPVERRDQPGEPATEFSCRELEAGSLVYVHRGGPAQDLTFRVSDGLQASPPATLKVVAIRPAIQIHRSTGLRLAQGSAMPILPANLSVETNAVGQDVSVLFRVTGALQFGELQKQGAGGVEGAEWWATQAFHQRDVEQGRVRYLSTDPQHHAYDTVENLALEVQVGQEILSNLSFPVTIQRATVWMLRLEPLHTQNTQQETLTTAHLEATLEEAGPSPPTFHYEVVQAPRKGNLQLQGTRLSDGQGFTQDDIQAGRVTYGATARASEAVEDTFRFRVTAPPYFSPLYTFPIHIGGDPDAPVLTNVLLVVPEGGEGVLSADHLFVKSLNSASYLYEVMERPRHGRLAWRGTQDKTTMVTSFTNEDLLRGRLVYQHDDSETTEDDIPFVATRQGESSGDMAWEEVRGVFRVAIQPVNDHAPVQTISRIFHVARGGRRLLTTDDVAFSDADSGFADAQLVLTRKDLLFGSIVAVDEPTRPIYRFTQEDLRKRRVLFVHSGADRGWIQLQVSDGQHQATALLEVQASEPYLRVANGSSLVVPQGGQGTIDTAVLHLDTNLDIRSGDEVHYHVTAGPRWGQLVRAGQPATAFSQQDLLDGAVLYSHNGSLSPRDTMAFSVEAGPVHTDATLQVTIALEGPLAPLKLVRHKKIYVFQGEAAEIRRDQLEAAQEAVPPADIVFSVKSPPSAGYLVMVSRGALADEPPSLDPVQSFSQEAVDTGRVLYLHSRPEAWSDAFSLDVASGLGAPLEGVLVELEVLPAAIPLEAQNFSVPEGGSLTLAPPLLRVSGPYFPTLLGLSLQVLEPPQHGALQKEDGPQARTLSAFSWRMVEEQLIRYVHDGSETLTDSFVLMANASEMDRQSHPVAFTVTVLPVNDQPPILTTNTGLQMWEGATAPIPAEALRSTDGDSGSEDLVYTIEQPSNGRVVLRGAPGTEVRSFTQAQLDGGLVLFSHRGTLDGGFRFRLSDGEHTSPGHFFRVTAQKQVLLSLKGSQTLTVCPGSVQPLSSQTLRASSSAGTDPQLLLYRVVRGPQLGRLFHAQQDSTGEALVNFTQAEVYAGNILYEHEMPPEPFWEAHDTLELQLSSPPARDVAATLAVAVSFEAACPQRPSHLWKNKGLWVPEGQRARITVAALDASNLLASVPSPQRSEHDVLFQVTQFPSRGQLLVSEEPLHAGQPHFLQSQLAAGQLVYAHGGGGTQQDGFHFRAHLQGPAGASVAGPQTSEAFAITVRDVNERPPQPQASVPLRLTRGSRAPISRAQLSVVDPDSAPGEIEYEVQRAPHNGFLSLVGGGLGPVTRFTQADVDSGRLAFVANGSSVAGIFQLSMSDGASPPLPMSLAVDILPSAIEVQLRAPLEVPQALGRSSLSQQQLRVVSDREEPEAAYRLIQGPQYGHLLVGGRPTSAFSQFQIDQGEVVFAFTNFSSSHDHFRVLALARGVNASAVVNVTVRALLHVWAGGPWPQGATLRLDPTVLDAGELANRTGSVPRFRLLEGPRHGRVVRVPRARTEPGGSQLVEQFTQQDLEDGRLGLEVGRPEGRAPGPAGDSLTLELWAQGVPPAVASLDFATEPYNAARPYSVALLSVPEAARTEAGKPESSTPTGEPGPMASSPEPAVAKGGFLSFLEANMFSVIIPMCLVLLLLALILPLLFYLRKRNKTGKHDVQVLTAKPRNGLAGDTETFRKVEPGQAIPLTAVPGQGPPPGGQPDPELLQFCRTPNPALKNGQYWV

[3] = biological target: T2, human MCSP expressed on tumor cells …; assay: cell-based or functional assay; remark: listed apart in the source
[4] = biological target: T3, human CD3 expressed on Jurkat cells (human, UniProt P07766 23-207); assay: flow cytometry on Jurkat cells
T3 construct: CD3 as part of the T cell receptor complex on Jurkat cells; also called huCD3; human CD3 on cells
T3 sequence (P07766 23-207 limits assumed): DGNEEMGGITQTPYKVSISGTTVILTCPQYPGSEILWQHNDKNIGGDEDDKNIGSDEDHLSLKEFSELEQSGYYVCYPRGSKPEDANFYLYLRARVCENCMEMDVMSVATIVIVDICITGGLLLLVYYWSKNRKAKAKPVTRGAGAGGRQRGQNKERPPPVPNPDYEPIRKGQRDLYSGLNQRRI

[5] = biological target: T2, human MCSP expressed on tumor cells …; assay: flow cytometry on WM266-4 cells

Binder | EC50 [pM] of T cell-mediated killing (LDH release) of MV-3 cells, human PBMCs, E:T 10:1, about 24 h [3] [pM] | EC50 [pM] of T cell-mediated killing (LDH release) of WM266-4 cells, human PBMCs, E:T 10:1, about 24 h [3] [pM] | EC50 [4] [nM] | EC50 [5] [nM] | other results
B1 |  |  |  |  | EC50 of apoptosis induction (LDH release) in LS-174T cells, human PBMCs, E:T 10:1, 28 h [1]: 1.56 nM; EC50 of apoptosis induction (LDH release) in MC38-huCEA cells, human PBMCs, E:T 10:1, 24 h [1]: ~3.2 nM; EC50 of apoptosis induction (LDH release) in MKN-45 cells, human PBMCs, E:T 10:1, 28 h [1]: 0.213 nM
B2 |  |  |  |  | EC50 of killing (LDH release) of MV-3 cells, human PBMCs, E:T 10:1, 27 h [2]: ~0.0117 nM; EC50 of killing (LDH release) of WM266-4 cells, human PBMCs, E:T 10:1, 26 h [2]: 0.0129 nM
B3 |  |  |  |  | EC50 of killing (LDH release) of MV-3 cells, human PBMCs, E:T 10:1, 21 h [2]: 0.0409 nM; EC50 of killing (LDH release) of WM266-4 cells, human PBMCs, E:T 10:1, 21 h [2]: 0.0284 nM
B4 |  |  |  |  | EC50 of killing (LDH release) of MV-3 cells, human PBMCs, E:T 10:1, 21 h [2]: 0.0884 nM; EC50 of killing (LDH release) of WM266-4 cells, human PBMCs, E:T 10:1, 21 h [2]: 0.0539 nM
B5 |  |  |  |  | EC50 of killing (LDH release) of MV-3 cells, human PBMCs, E:T 10:1, 27 h [2]: ~0.0822 nM; EC50 of killing (LDH release) of WM266-4 cells, human PBMCs, E:T 10:1, 26 h [2]: 0.0168 nM
B6 | 4.1 | 3.7 | 6.1 | 0.57 | 
B7 | 11 | 11.3 | 10.3 | 3.1 | 
B8 | 3 | 7.1 | 32 | 3.4 | 
